Experimental data published in the supplement of paper PMC9112550, “Optimization of the antimicrobial peptide Bac7 by deep mutational scanning” (BMC Biology, 2022).

tested on: Escherichia coli TOP10; test: shrunken log2 fold change of peptide-encoding DNA abundance (4.5 h post-induction vs induction); higher = less antimicrobial activity (less host growth inhibition); details: time post-induction: 4.5 h; library: site-saturation at positions 5, 18, 19, 20
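Further: peptides expressed intracellularly from a pBAD plasmid library in pooled LB shake-flask culture, induced with 0.3% L-arabinose, DNA abundance read by NGS, three biological replicates, DESeq2 with apeglm shrinkage.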

Sequence	shrunken log2 fold change
RRIRLRPPRLPRPRPRPEDTPRP	-0.00686
RRIRPRPPRLPRPRPRPWPWPRP	0.0232
RRIRYRPPRLPRPRPRPLHKPRP	0.0382
RRIRNRPPRLPRPRPRPCMMPRP	-0.325
RRIRHRPPRLPRPRPRPRCPPRP	0.169
RRIRNRPPRLPRPRPRPLYCPRP	-0.793
RRIRCRPPRLPRPRPRPGWYPRP	-0.244
RRIRCRPPRLPRPRPRPVTGPRP	-0.0982
RRIRERPPRLPRPRPRPPSPPRP	-0.0326
RRIRHRPPRLPRPRPRPIRWPRP	0.171
RRIRARPPRLPRPRPRPLAIPRP	0.397
RRIRQRPPRLPRPRPRPKCPPRP	-0.0714
RRIRNRPPRLPRPRPRPEFCPRP	0.0216
RRIRVRPPRLPRPRPRPHLGPRP	-0.132
RRIRGRPPRLPRPRPRPQHHPRP	-0.102
RRIRTRPPRLPRPRPRPVMEPRP	0.187
RRIRARPPRLPRPRPRPWDSPRP	-0.277
RRIRPRPPRLPRPRPRPAGWPRP	0.765
RRIRMRPPRLPRPRPRPLPRPRP	2.48
RRIRDRPPRLPRPRPRPEAHPRP	-0.00146
RRIRFRPPRLPRPRPRPNVDPRP	-0.0445
RRIRQRPPRLPRPRPRPSWHPRP	-0.155
RRIRVRPPRLPRPRPRPPLTPRP	0.119
RRIRERPPRLPRPRPRPEKGPRP	-0.0493
RRIRPRPPRLPRPRPRPCLMPRP	-0.393

Sequence	shrunken log2 fold change
RRIRDRPPRLPRPRPRPAIRPRP	0.53
RRIRKRPPRLPRPRPRPSHRPRP	-0.0303
RRIRQRPPRLPRPRPRPFRCPRP	-0.0452
RRIRLRPPRLPRPRPRPATDPRP	0.142
RRIRIRPPRLPRPRPRPEHKPRP	-0.199
RRIRVRPPRLPRPRPRPGSQPRP	-0.11
RRIRLRPPRLPRPRPRPCHSPRP	-0.011
RRIRHRPPRLPRPRPRPYLVPRP	-0.162
RRIRKRPPRLPRPRPRPECEPRP	0.0869
RRIRSRPPRLPRPRPRPGMVPRP	0.23
RRIRVRPPRLPRPRPRPAARPRP	0.47
RRIRRRPPRLPRPRPRPCHVPRP	-0.238
RRIRQRPPRLPRPRPRPQLCPRP	-0.0247
RRIRLRPPRLPRPRPRPASAPRP	0.202
RRIRNRPPRLPRPRPRPHHHPRP	-0.617
RRIRIRPPRLPRPRPRPVIAPRP	-0.388
RRIRSRPPRLPRPRPRPTMIPRP	-0.163
RRIRYRPPRLPRPRPRPDTQPRP	-0.00672
RRIRNRPPRLPRPRPRPYIFPRP	-0.327
RRIRHRPPRLPRPRPRPKSPPRP	-0.0893
RRIRYRPPRLPRPRPRPFMPPRP	-0.323
RRIRQRPPRLPRPRPRPIIFPRP	-0.271
RRIRKRPPRLPRPRPRPDRMPRP	1.19
RRIRMRPPRLPRPRPRPKCMPRP	0.745
RRIRNRPPRLPRPRPRPTCDPRP	0.0801

Sequence	shrunken log2 fold change
RRIRWRPPRLPRPRPRPRNMPRP	-0.0758
RRIRPRPPRLPRPRPRPFSNPRP	-0.218
RRIRERPPRLPRPRPRPYTYPRP	-0.0595
RRIRNRPPRLPRPRPRPDMSPRP	0.000831
RRIRTRPPRLPRPRPRPETRPRP	-0.0794
RRIRDRPPRLPRPRPRPAVEPRP	0.845
RRIRSRPPRLPRPRPRPCIDPRP	-0.607
RRIRQRPPRLPRPRPRPSQCPRP	-0.0618
RRIRHRPPRLPRPRPRPTFKPRP	-0.537
RRIRERPPRLPRPRPRPDQKPRP	-0.0097
RRIRRRPPRLPRPRPRPRCCPRP	0.43
RRIRARPPRLPRPRPRPRLAPRP	1.53
RRIRKRPPRLPRPRPRPYWQPRP	-0.0316
RRIRPRPPRLPRPRPRPQLDPRP	0.314
RRIRHRPPRLPRPRPRPFLFPRP	-0.408
RRIRYRPPRLPRPRPRPQDKPRP	-0.341
RRIRHRPPRLPRPRPRPPIWPRP	0.324
RRIRTRPPRLPRPRPRPFATPRP	0.101
RRIRLRPPRLPRPRPRPIYEPRP	-0.291
RRIRCRPPRLPRPRPRPFGDPRP	-0.00748
RRIRGRPPRLPRPRPRPPPEPRP	2.01
RRIRDRPPRLPRPRPRPTTEPRP	0.578
RRIRHRPPRLPRPRPRPMSEPRP	0.0594
RRIRVRPPRLPRPRPRPSSIPRP	-0.128
RRIRNRPPRLPRPRPRPKNAPRP	-0.0561
